{
  "source": "patent US20180362766A1",
  "about": "“Fluorogenic pH-Sensitive Dyes and Their Methods of Use” (Life Technologies Corporation, priority 2012, published 2018)",
  "molecules": {"B1": {"name": "Compound (24)-labeled EGF: epithelial growth factor (EGF) conjugated to Compound (24) STP ester, degree of substitution 1 (conjugate, UniProt P01133 23-1207, looked up)", "Pro-epidermal growth factor": "PQHWSCPEGTLAGNGNSTCVGPAPFLIFSHGNSIFRIDTEGTNYEQLVVDAGVSVIMDFHYNEKRIYWVDLERQLLQRVFLNGSRQERVCNIEKNVSGMAINWINEEVIWSNQQEGIITVTDMKGNNSHILLSALKYPANVAVDPVERFIFWSSEVAGSLYRADLDGVGVKALLETSEKITAVSLDVLDKRLFWIQYNREGSNSLICSCDYDGGSVHISKHPTQHNLFAMSLFGDRIFYSTWKMKTIWIANKHTGKDMVRINLHSSFVPLGELKVVHPLAQPKAEDDTWEPEQKLCKLRKGNCSSTVCGQDLQSHLCMCAEGYALSRDRKYCEDVNECAFWNHGCTLGCKNTPGSYYCTCPVGFVLLPDGKRCHQLVSCPRNVSECSHDCVLTSEGPLCFCPEGSVLERDGKTCSGCSSPDNGGCSQLCVPLSPVSWECDCFPGYDLQLDEKSCAASGPQPFLLFANSQDIRHMHFDGTDYGTLLSQQMGMVYALDHDPVENKIYFAHTALKWIERANMDGSQRERLIEEGVDVPEGLAVDWIGRRFYWTDRGKSLIGRSDLNGKRSKIITKENISQPRGIAVHPMAKRLFWTDTGINPRIESSSLQGLGRLVIASSDLIWPSGITIDFLTDKLYWCDAKQSVIEMANLDGSKRRRLTQNDVGHPFAVAVFEDYVWFSDWAMPSVMRVNKRTGKDRVRLQGSMLKPSSLVVVHPLAKPGADPCLYQNGGCEHICKKRLGTAWCSCREGFMKASDGKTCLALDGHQLLAGGEVDLKNQVTPLDILSKTRVSEDNITESQHMLVAEIMVSDQDDCAPVGCSMYARCISEGEDATCQCLKGFAGDGKLCSDIDECEMGVPVCPPASSKCINTEGGYVCRCSEGYQGDGIHCLDIDECQLGEHSCGENASCTNTEGGYTCMCAGRLSEPGLICPDSTPPPHLREDDHHYSVRNSDSECPLSHDGYCLHDGVCMYIEALDKYACNCVVGYIGERCQYRDLKWWELRHAGHGQQQKVIVVAVCVVVLVMLLLLSLWGAHYYRTQKLLSKNPKNPYEESSRDVRSRRPADTEDGMSSCPQPWFVVIKEHQDLKNGGQPVAGEDGQAADGSMQPTSWRQEPQLCGMGTEQGCWIPVSSDKGSCPQVMERSFHMPSYGTQTLEGGVEKPHSLLSANPLWQQRALDPPHQMELTQ", "modifications": "Pro-epidermal growth factor Compound (24) dye conjugate"}},
  "system": "A 431 cells",
  "assay": "Live cell internalization (endocytosis) of dye-labeled EGF, fluorescence imaging",
  "type": "cell-based",
  "experimental": "A 431 cells were grown in complete medium on 35 mm poly-D-lysine coated glass bottom culture dishes from MatTek. On the day of the assay, cells were rinsed once with LCIS +1% BSA (Live Cell imaging solution, Cat# A14291DJ) and placed at 37° C. Control dishes received LCIS; EGF pretreatment dishes received 10 μg/mL unlabeled EGF in LCIS. Cells were incubated at 37° C. for 30 minutes. Cells were then cooled to 4° C. on ice for 10 minutes. Compound (24)-labeled EGF was added to the dishes 1:10 at 5 μg/mL from a 50 μg/mL stock in LCIS. These dishes were incubated on ice for 30 minutes, then washed 2× with cold LCIS and allowed to warm to 37° C. for 60 minutes before imaging with standard TRITC and FITC filter sets on a DeltaVision Core microscope. […] All images were matched for gain and exposure times.",
  "data": [
    {"molecule": "B1", "values": [
      {"measurement": "fluorescent signal from dye-labeled EGF internalization", "setting": "cells pretreated with 10 μg/mL unlabeled EGF", "value": "no signal"},
      {"measurement": "fluorescent signal from dye-labeled EGF internalization", "setting": "untreated (control) plates, 5 μg/mL labeled EGF, 60 minutes at 37° C.", "value": "Specific signal"}
    ]}
  ]
}
